Laboratory results: the DeepSol protein solubility set

Assay: soluble on expression in E. coli; label from the status in PepcDB or PDB records

| Sequence | soluble on expression in E. coli |
| --- | --- |
| NGLLYKRWVKQRAEDVEKWSGGRLGYVHIQSMGDGSFRTVYSDILGKYNNCDGIVIDTRFNGGGRLHEDIEILFSGQKYFTQVVRGREACDMPSRRWNKPSIMLQCEANYSNAHGTPWVYKHQNIGKLVGMPVPGTMTSVSWETLQDPSLVFGIPIIGYRLPDGSYLENTQLEPDIKVANSPETIVKGEDTQLKMAVDELLKEIDSRKK | not soluble |
| MSLAENSLKIWNWSYYIDEALLDEFAAHAGIPRENIVYDEYDDPNVVLSRLEAGKSGYDVVIIPDYILDVAIKEGLLMELNKSLIPNYPHLDEKFKSTPYDPEGRYSAVYMWGTTGFGYRSDLAEKVTTLRQIFDPDYGYLKKYSKKITMLEEPIEVILACKAFLGKSVDDWSDETMQEVKEALIRQKPYLAAYAGANVYVEGLKNGSIYVAHAYNGDIVRLQDEEGVDQASFAIPEEGGTIWTDNMCIPKDAENVELAHEFINFMLDPEVSGRNSDYIKYASPVKEARNYVSEEVLENPAVYVPEDLMKKLWFTPQLDEEARRKIENLMIEVKASTEGHHHHHH | soluble |
| MSEQAPAPKRGRRFKEQTPVQRALGLLVHREHSKKELNRKLQARGIEPEAAQAAVERLAGEGWQDDVRFAASVVRNRASSGYGPLHIRAELGTHGLDSDAVSAAMATFEGDWTENALDLIRRRFGEDGPVDLAQRRKAADLLARRGFDGNSIRLATRFDLED | soluble |
| MINLTHIASSLARAALSDSTKPKMERAINVASHIAGKVALQVTSSLLEQKGLLNERQQKGLSMILKALSGKEPVNNVETHEGGGRFNLARAAFDVASVVWERDKSMHNVMSFLGVSDSKGKMLFSLGKKLADAMAKPEPGKDNSEATNARHAYFSSNLKLNKLMNDLTDQVFNKIR | not soluble |
| SGRPVAELLRKIHTSKALLDMLKRLGKEPLNPGALLSQLKQAVFAVQQSSPLIQEGIKYLEEHLHEVHFGEKVVCHCDVNHNNWLLSEDNQLYLIDWDGAMIADPAMDLGPLLYHYVEKPAWESWLSMYGIELTESLRLRMAWYVLSETITFIAWHKAKGNDKE | not soluble |
| MSQLSPKNKNDLRQCVLYEFIDGKPVFEAYKSFCDVIGDSCMDYVDFEFWFMRFANGNLNLDFNFDKSSSLSIFNIPIEILVKIMNELDWVSRLSMRQVSRAFRSIVDEESKMPKSLSFGFYDDTVFLQYDDSCVKYKDLEEEGHDDKIDIALFDFGVTLINPRLKLDYFEVLIDAKHGLDIDSDKCFKSLEALLKARNLPLPVKNVNIETNSGYEMNHAKNIIPYLKSGVLEKIVTNCDSSSFENIEIMKEIVELDQWKQAKHLEIDSLVKIPIENFLHFEHFELFFEHLCFQDVKERLLESSNFRHCTLQVMNSFDLEELAANFGIQYMGDDEGIRQTTFYEISTNSLEMTMFLDFVTFDRKF | not soluble |
| MPTGKSESSDISEVVGNMEISKVEGLEACIGMSHEVSTTPAAELAAFRARKVALITGISGQDGSYLAELLLSKGYKVHGIIRRSSSFNTARIEHLYSNPITHHGDSSFSLHYGDMTDSSCLIKLISTIEPTEVYHLAAQSHVKVSFDLPEYTAEVDAVGTLRLLDAIHACRLTEKVRFYQASTSELYGKVQEIPQSEKTPFYPRSPYAVAKMYGYWIVVNYREAYNMFACNGILFNHESPRRGETFVTRKITRSVAKISLGQQESIELGNLSALRDWGHAREYVEAMWRILQHDSPDDFVIATGKQFSVREFCNLAFAEIGEVLQWEGEGVEEVGKNKDGVIRVKVSPKYYRPTEVETLLGNAEKAKKTLGWEAKVTVPELVKEMVASDIILMKSNPMA | not soluble |
| MKILTIDTSTSTCSAALSIDGRCAGEYLLEAERHPSERLLAAVDILLRDTGMELEELDGFGVALGPGSFTGVRIGVATVKGLALATGKPAVGFSSLAMLALNLPWSLLPVCTLFDARKKEVYGGLYRVTSAPEPVIVDRVAPPERFLEAIEGEAIFVGDGAIRYREAIESILGHRAFFAPAHCHQPRASAGALLAGELLRTGAAVPLPLLNPTYIRPSEAELARMCQKAVAAALEHHHHHH | not soluble |
| MSLKHMLIAGGGIGGLSAAISLRKAGFSVTLCEAASENRKTGAGILQPQNALAVLKELGVFEDCCKHGFQTEWFKTFDEQGNLLFQVSESFLDDSLPGRNNILRKTLNDILMKHAEAVGVDIKWGKKVVAYEETAESVTALCEDGEKMQADILAGFDGIHSVVRDKMLQKETEKEHLGMGAWRFYIELPDYTFEDATFMYRSGDTQIGVVPLAQHAGYVFVLQPCTSDYWDEEDTRFDRVKEILSGFRGLDFVTKHMSKQHPVIFNKLEQVAVQEPWHKGRVIIGGDAAHAGAPTLAQGAAMAIEDAIVLAEELQNHADHETALQAYYKRRAPRALKVQNLSSEIVRRRLKGEPGAEELIGECYAVLREGYEGGSHHHHHH | soluble |
| MSLDFNTLAQNFTQFYYNQFDTDRSQLGNLYRNESMLTFETSQLQGAKDIVEKLVSLPFQKVQHRITTLDAQPASPYGDVLVMITGDLLIDEEQNPQRFSQVFHLIPDGNSYYVFNDIFRLNYSA | soluble |
| MAKWLRDYLSFGGRRPPPQPPTPDYTESDILRAYRAQKNLDFEDPYEDAESRLEPDPAGPGDSKNPGDAKYGSPKHRLIKVEAADMARAKALLGGPGEELEADTEYLDPFDAQPHPAPPDDGYMEPYDAQWVMSELPGRGVQLYDTPYEEQDPETADGPPSGQKPRQSRMPQEDERPADEYDQPWEWKKDHISRAFAVQFDSPEWERTPGSAKELRRPPPRSPQPAERVDPALPLEKQPWFHGPLNRADAESLLSLCKEGSYLVRLSETNPQDCSLSLRSSQGFLHLKFARTRENQVVLGQHSGPFPSVPELVLHYSSRPLPVQGAEHLALLYPVVTQTP | soluble |
| MSDRGRTLMVQGTTSDAGKSTLVTALCRWLARRGVAVVPFKPQNMALNSAVTADGGEIGRAQAVQAQACRLAPHTDMNPVLLKPNTDIGAQVIIHGRAVTSMDAAAYHDYKRVAMEAVLASHGRLAAAYRVVMVEGAGSPAEINLRANDIANMGFAEAVDCPVILVADIDRGGVFAHLVGTLELLSDSERERVKGFVINRFRGDIALLQPGLDWLEARTGKPVLGVLPYVSDLHLEAEDAIDTRQAAKVGPRLKVVVPVLPRISNHTDFDPLRLHPQVELSFVGPGQALPSADLIVLPGSKSVRADLAALRERGWDEAILRHLRYGGRLLGICGGLQMLGERLHDPLGLEGAAGSSAGLGLLALETTLEADKQLRNVQGRLSLEDAPLSGYEIHAGVTRGEALARPAVVLDDGRADGARSVDGNVMGTYLHGLFESTAACSALLRWAGLREVQAVDYQALRERDIERLADLVERHLDTGRLLALCGEPH | not soluble |
| MGSDKIHHHHHHMPRGPTKKKTEDTTSQSLESKLWATADKLRGHLDAADYKHVVLGLIFLKYISDRFAQRHEEIIREEAGTYAAEDRDEYTAEGVFWVPASSRWAVVQTAAKQPDIGKRIDGAMTDIERENPHLKNILPKGYARPTLDQRRLGELVDLIGTIGLGTAEHQARDTLGRVYEYFLGRFASAEGKRGGEFYTPASVVRTLVTMLAPYKGRIYDPCCGSGGMFVQSEKFIEAHGGKVGDISVYGEESNPNTWKLALMNLAIRGIEADLGPEAADTFHKDLHPDLRADYILANPPFNISDWGGDLLRDDKRWQYGIPPTGNANFAWVQHMVHHLAPYGIAGFVLANGSMSSNTSGEGEIRKNLIEADLVDCMVAMPGQLFYSTQIPVCLWFLAKNRDDGRGMTGKELFERTGEVLFIDARNMGFMADRTHRELTDEDIQKIADTYHNWRGDGDGEYADIPGFCKAASLDDIRKNGHVLTPGRYVGAAAKDDDGEPFEEKMDRLTKELSAQLAEGRRLEDEMLKNFRVLGYEL | not soluble |
| MGSDKIHHHHHHMPARIQPTARQVRLGAELRKLRDAAGLTSRQAAALLGTNPAQMSQIEAGNAGVSGERVRKLGVQYASADMELVDALVEMATDRTRGWWEEYRDVLPPVFQDLAELEHHATFMRVVGTVHVPGLLQTQEYARAVFAYVVPELPVDELDLRVRHRMRRKLVLSERTVPYEAVIHESVLRTRVADRRVAVAQLDELLSQSERPNVSLRVIPFGVDGFAGAGAMMLYAGGRVPALDTVQRDAPYGSVFLDASAQLLAMRTLFRRVESAALPPAKSRDYIHRLTKEL | not soluble |
| MQSKLITELTDLETAFHIRKEVFVKEQGVPLTDEFDTFDEIGEQCKHILVYYHELPVGTGRIRFVDGVGKLERICILKDYRTYGLGKVIIQTLEEIARNEQATKVKLHGQTQAEGFYKKLGYETSSDIFMEDGIPHILMTKMLS | not soluble |
